± gives the uncertainty stated by the source.
Assay: amyloid nucleation score (Sup35N fusion, yeast selection) (log enrichment); library NNK1; higher = more nucleation; inactive = no reads after selection
Summary of the method: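 DiMSum was used to calculate nucleation scores as log enrichment of output over input reads, centred on the mode score of non-aggregating sequences. Sequences with fewer than 100 input reads were not scored. Input and output came from Illumina sequencing of plasmid inserts in psi-negative yeast expressing peptides of 20 random codons fused to Sup35N, induced 24 hours with 100 μM copper sulfate and then grown 7 days at 30°C on medium lacking adenine and uracil.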

Point of comparison: ISLAVWGFSILLRIADCSMI, amyloid nucleation score 0.123 ± 1.2. Against it:
- SWCRGLEVQWLRCIFRM — within error, 0.274 ± 0.69
- LRNVYLSGKFVYRGELNCET — within error, 0.95 ± 0.31
- ILSFSVRLPVHDSSLCFGSG — within error, 0.316 ± 0.67
- HANCG — within error, -0.155 ± 0.59
- LALGPLHSVLRGVINMGYGI — within error, -0.88 ± 1.7
- GLDFCIVRACTKRYSWNQLG — within error, 1.69 ± 0.56
- PSQHSIPLLTQVYVLL — higher, 5.54 ± 0.059
- LCSMWEGRGADEMLAICQGA — within error, 0.152 ± 0.59
- HLLRRHYNCLSHLGWCNGLF — within error, -0.024 ± 0.29
- RGFNVVHGGELRRMLMTEGD — within error, 0.926 ± 0.43
- CDLLRSLTVS — within error, 0.946 ± 0.6
- FISVGAFGYTMILNVFN — higher, 5.445 ± 0.051
- KLQIPLGQVSLGSKVMKTGV — within error, -1.08 ± 2.4
- MQMSLTDSGGVYVDGLVGYL — within error, -0.239 ± 0.31
- FPFFLMCMSSGFYSV — higher, 2.35 ± 0.25
- WHRSIWR — within error, 0.753 ± 0.56
- IAPSNFRGWMAHYKV — within error, 0.213 ± 0.57
- SRTFVGGLGLVYEIFIVMAV — within error, -0.301 ± 0.59
- IYNGVTGRYWTSHI — within error, -0.989 ± 0.7
- KWILVRSLESIHKPTL — within error, 0.174 ± 0.89
- YSGRRQETNVGRLRSNWGGL — within error, -0.568 ± 0.39
- LLGYRTYEMEHSCILRPRNK — within error, 0.887 ± 0.57
- YSIFTIKGRDCKLFITNNVS — higher, 7.468 ± 0.045
- SQYSADSVHGCHLSVSPTWF — within error, 1 ± 0.81
- VVAFYL — higher, 1.91 ± 0.37
- HVYVWKRTVPGIGRDQHNSR — within error, 1.81 ± 0.6
- MGHAGTLCFANNCLNM — higher, 7.483 ± 0.059
- VLLTR — within error, 0.505 ± 0.36
- YRVVACMGCALRLVWLARYR — within error, -0.31 ± 0.3
- LQTGRYDWKVDPINSSMESV — within error, 0.26 ± 0.7
- GVPDFA — within error, 0.685 ± 0.7
- MIYVGVDISV — higher, 2.24 ± 0.28
- LVTRLALSFAVNFLLGDSCV — within error, 0.595 ± 0.48
- GPLINTDELWIWSAVCCCRL — within error, -0.781 ± 1.9
- AYYSRNIIKPGKKVEVPKMG — within error, -1.01 ± 0.72
- KLNGNINFCFNCGNSGF — higher, 7.27 ± 0.046
- VNLFLVMKFK — higher, 6.676 ± 0.043
- PWITCCKVNGIFLTDRCRVV — within error, 0.574 ± 0.3
- LHVEWSASMSMFCLNHRIAA — within error, -0.172 ± 0.61
- TLVTEESWMSLLSVNIAQ — within error, -0.378 ± 0.59
- TRHCMRLWECKHEMRTAN — within error, -0.647 ± 1.1
- TTYYRFNVDKTFSAVISAEF — within error, -1.02 ± 2.4
- NCACC — higher, 6.12 ± 0.065
- WELVCISFLVRDTCVVI — within error, 0.263 ± 0.47
- PFTNQPMSPARHLFI — within error, -1.88 ± 2.4
- SFVRGFYVNFRFSKGILDMF — within error, -0.082 ± 0.32
- WLSMANHLIISCGSCRFRAF — within error, 0.973 ± 0.44
- LRNSHNVGEQFCISVRDSLG — within error, 0.007 ± 0.69
- LRSMCSCHVRPIYPFCGHY — within error, 0.242 ± 0.81
- KASDGLSINRGE — within error, 0.48 ± 0.73
- KVYYRVKMHYSLAGEARTDT — within error, 0.621 ± 0.84
- ALMDKDLCLNMSGQKSLWFR — within error, 0.073 ± 0.48
- SYRRAVHGVVVQQKRDEFVL — within error, -0.026 ± 0.36
- DVVEYVIWSYTWMNLAHYCR — within error, 0.136 ± 0.24
- IASVQLS — within error, 1.16 ± 0.53
- WVWKTNWWYTRRIASLWDSR — within error, 1.7 ± 0.56
- TPANNVRISFIWFL — higher, 3.54 ± 0.064
- GLQSKV — within error, -0.974 ± 2.4
- CDNSLDSIWFVSVSWN — within error, 1.16 ± 0.69
- SSDGVSMLC — within error, 0.33 ± 0.47
- RLAGKHKRTDTRSKRTPVLR — within error, 0.495 ± 0.47
- SAELKDLRGKQLLAGGP — within error, 0.53 ± 1.1
- SLFLAGIMDIRGWYVVASTP — within error, -0.34 ± 0.54
- ANRNDCTQFTDSK — within error, -0.41 ± 0.27
- GVLRHNCFIESGRIISVMVT — within error, -0.404 ± 0.65
- FNYVILTFWVKYTFSAHCV — within error, -0.271 ± 0.64
- VTNFNESLGKFSRNTLLRS — within error, -0.713 ± 1.1
- VLCVFCGNLHMIVLDCAFDA — higher, 8.589 ± 0.051
- AVGRPPIRYRNTHSISTDSE — within error, 0.565 ± 0.31
- LFWSET — within error, -0.526 ± 0.81
- PMFWRYILFSANNEPQFIRQ — within error, 0.073 ± 0.24
- TDFMVGCVNMRRSESVWYC — within error, 0.767 ± 0.39
- IGPLYRFCMLNMRFGAGSLN — within error, 0.428 ± 0.84
- LLDVLMDGRFSFVQRYCRAD — within error, 1.05 ± 0.2
- PPSLQ — within error, -0.263 ± 1.4
- YKYFCGYKLSVEDLLLSVYQ — within error, 0.188 ± 0.27
- GKISICTRISMYSQSFVWIP — within error, -0.109 ± 0.45
- SFTNDSSRSWRHTRLGSCCE — within error, 1.48 ± 0.63
- SGRRTYMLRMLQWVGVIAYR — within error, -2.36 ± 2.4

In the case of LCSNC, the amyloid nucleation score is reported as “inactive”.
With LPGDDTSCEDLSGGVPLWNG the amyloid nucleation score was “inactive”.
In the case of MVHWVILYAADFPIETLNK, the amyloid nucleation score is reported as “inactive”.
With MAGSSMTISVLYSWIP the amyloid nucleation score was “inactive”.
In the case of VCITNNELVGVFDDEVFIAF, the amyloid nucleation score is reported as “inactive”.
With LRSFW the amyloid nucleation score was “inactive”.

From the supplement of paper PMC12042874
